Source: the supplement of paper PMC9170038

What was measured:
MS2 coat protein [1] = experiment: apparent KD of MS2 coat protein, switch OFF state (with FMN for OFF switches, without FMN for ON switches); designed switch direction (-1 OFF switch, 1 ON switch): -1; higher = weaker reporter binding; conditions: FMN input: 0 or 200 uM; Eterna round: R93 (includes R88 designs)
Procedure, shortened: (§1)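 Titrations with SNAP-549-labelled MS2 coat protein ran in twofold steps from 0.7 or 1.5 nM to 3 µM, each step taking 0.8–1.5 h at the start and 10–20 min toward the end. The targets were designed RNA switches transcribed on-chip from Illumina sequencing clusters, held in 100 mM Tris-HCl pH 7.5, 80 mM KCl, 4 mM MgCl2, without or with constant ligand. Apparent KD was taken per design as the median of normalised cluster binding-curve fits.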

MS2 coat protein [2] = experiment: apparent KD of MS2 coat protein, switch ON state; designed switch direction (-1 OFF switch, 1 ON switch): -1; higher = weaker reporter binding; conditions: FMN input: 0 or 200 uM; Eterna round: R93 (includes R88 designs)
Procedure, shortened: as §1

CAAAAGCUAGGAUAUGCUAAUUGUUCCUUAAGUCAAAAUAAACAUGAGGAUCACCCAUGUAGAAGGAGCCCACA [Tegean]
apparent KD of MS2 coat protein (MS2 coat protein [1]): 16.9 nM
apparent KD of MS2 coat protein (MS2 coat protein [2]): 31.5 nM

CAAUCUGCAGGAUAUACAUGAGGAUCACCCAUGUAAGGACAAUAAAUAAGAAGAAGAAGUAGAAGGGCAGACAA [e3]
apparent KD of MS2 coat protein (MS2 coat protein [1]): 29.2 nM
apparent KD of MS2 coat protein (MS2 coat protein [2]): 27.5 nM

CAGUACUGAGGAUAUACAUGAGGAUCACCCAUGUGGUUAAGCUAGGAAACUAGCACAUGUAGAAGGCAGUACUG [Ex3: 814]
apparent KD of MS2 coat protein (MS2 coat protein [1]): 19.5 nM
apparent KD of MS2 coat protein (MS2 coat protein [2]): 50.1 nM

CAUUCACAUGAGGAUCACCCAUGUAAGGAUAUCGAAAUAAAACUAAUCAAUAAACAAACGAGAAGGUACAAAAA [Exclusion 1 design 9]
apparent KD of MS2 coat protein (MS2 coat protein [1]): 21.2 nM
apparent KD of MS2 coat protein (MS2 coat protein [2]): 26 nM

CCCAUGUCAGGAUAUCAGUAGUAAAAAAAAAAAAUUACUACUGAGAAGGGACAUGAGGAUCACCCAUGUUCCAA [EX4 318: Super Stable 18]
apparent KD of MS2 coat protein (MS2 coat protein [1]): 53 nM
apparent KD of MS2 coat protein (MS2 coat protein [2]): 58.3 nM

CCUAUGUCAGGAUAUCAGUAGUAAAAAAAAAAAAUUACUACUGAGAAGGGACAUGAGGAUCACCCAUGUCCAAA [EX4 312: Super Stable 12]
apparent KD of MS2 coat protein (MS2 coat protein [1]): 18.4 nM
apparent KD of MS2 coat protein (MS2 coat protein [2]): 25.6 nM

CCUGUGUGAGGAUAUGGUAAAAAAAAAAAAAAAAAGCUCCUCCAGAAGGCACAUGAGGAUCACCCAUGUCGUGG [Jolly's Folly 15 - Jieux - Exclusion 4]
apparent KD of MS2 coat protein (MS2 coat protein [1]): 38.2 nM
apparent KD of MS2 coat protein (MS2 coat protein [2]): 18.9 nM

CUCAAGUAAGGAUAUUGAAGAAAAGAAGAGAAAGAAAAGAACAAGAAGGUACAUGAGGAUCACCCAUGUAAGAA [EteRNA is fun!]
apparent KD of MS2 coat protein (MS2 coat protein [1]): 16.6 nM
apparent KD of MS2 coat protein (MS2 coat protein [2]): 33.4 nM

CUCAAGUCAGGAUAUUUAAGAAAAGAAGAGAAAGAAAAGAAAAAGAAGGGACAUGAGGAUCACCCAUGUAAGAA [EteRNA is fun!]
apparent KD of MS2 coat protein (MS2 coat protein [1]): 41.3 nM
apparent KD of MS2 coat protein (MS2 coat protein [2]): 60.4 nM

CUCAAGUGAGGAUAUAUAAGAAAAGAAGAGAAAGAAAAGAAAUAGAAGGCACAUGAGGAUCACCCAUGUAAGAA [EteRNA is fun!]
apparent KD of MS2 coat protein (MS2 coat protein [1]): 24.1 nM
apparent KD of MS2 coat protein (MS2 coat protein [2]): 29.5 nM

CUCAAGUUAGGAUAUUCAAGAAAAGAAGAGAAAGAAAAGAAGAAGAAGGAACAUGAGGAUCACCCAUGUAAGAA [EteRNA is fun!]
apparent KD of MS2 coat protein (MS2 coat protein [1]): 26 nM
apparent KD of MS2 coat protein (MS2 coat protein [2]): 53.8 nM

CUCAUGUGAGGAUAUGUACAGAAAAAAAUGGGUGAAACUGUACAGAAGGCACAUGAGGAUCACCCAUGUGCCAA [EX4 376: S S Pseudoknot 1]
apparent KD of MS2 coat protein (MS2 coat protein [1]): 16.3 nM
apparent KD of MS2 coat protein (MS2 coat protein [2]): 52.2 nM

CUCUAGUGAGGAUAUGGAAGAAAAGAAGAGAAAGAAAAGAACCAGAAGGCACAUGAGGAUCACCCAUGUAAGAA [EteRNA is fun!]
apparent KD of MS2 coat protein (MS2 coat protein [1]): 46.3 nM
apparent KD of MS2 coat protein (MS2 coat protein [2]): 38.9 nM

CUCUUGUGAGGAUAUCUAAGAAAAGAAAAGAAAGAAAAGAAAGAGAAGGCACAUGAGGAUCACCCAUGUAAGAA [EteRNA is fun!]
apparent KD of MS2 coat protein (MS2 coat protein [1]): 84.6 nM
apparent KD of MS2 coat protein (MS2 coat protein [2]): 35.7 nM

CUUAGACAUGAGGAUCACCCAUGUGAGGAUAUGAUGCGAAUAAAGAAAGAAGAAAGCAUCAGAAGGCACAUAUG
apparent KD of MS2 coat protein (MS2 coat protein [1]): 545 nM
apparent KD of MS2 coat protein (MS2 coat protein [2]): 41.3 nM

CUUAUGUCAGGAUAUCAGUAGUAAAAAAAUAAAAUUACUACUGAGAAGGGACAUGAGGAUCACCCAUGUCCGGG [EX4 369: Super Stable 69]
apparent KD of MS2 coat protein (MS2 coat protein [1]): 34 nM
apparent KD of MS2 coat protein (MS2 coat protein [2]): 78.4 nM

GAAAAACAUGAGGAUCACCCAUGUCAGGAUAUCGAAAAAAAUAAAAAAGAAAAGAAAACGAGAAGGGACAAAAA [May 12]
apparent KD of MS2 coat protein (MS2 coat protein [1]): 45.6 nM
apparent KD of MS2 coat protein (MS2 coat protein [2]): 28.2 nM

GAAAAGUCAGGAUAUGCAGACAAAGCAAAAAAGCAAUGUCUGCAGAAGGGACAUGAGGAUCACCCAUGUAAAAA [Mat - Exclusion 4 - Mayanna - D115]
apparent KD of MS2 coat protein (MS2 coat protein [1]): 45.2 nM
apparent KD of MS2 coat protein (MS2 coat protein [2]): 51.4 nM

GAAAAUGGAGGAUAUACAUGAGGAUCACCCAUGUGUAAAAAAAAUUACACAAAAGAAAGUAGAAGGCCAUAAAG [Mat - Exclusion 3 - Mayanna mod - D106]
apparent KD of MS2 coat protein (MS2 coat protein [1]): 138 nM
apparent KD of MS2 coat protein (MS2 coat protein [2]): 49.8 nM

GAACACGGAGGAUAUACAUGAGGAUCACCCAUGUUGAUCCUCAUUAAAAUUGAUAAAUGUAGAAGGCCGUGAUA [Exclusion 3.11 (a Vinnie Mod, FMN+ favored more)]
apparent KD of MS2 coat protein (MS2 coat protein [1]): 21.2 nM
apparent KD of MS2 coat protein (MS2 coat protein [2]): 49.4 nM

GAAGAACAUGAGGAUCACCCAUGUCAGGAUAUGAAUAACGGAAUAAUACGUUAUGGAAUCAGAAGGGACAAGAA [Ex 1 May 52]
apparent KD of MS2 coat protein (MS2 coat protein [1]): 59.4 nM
apparent KD of MS2 coat protein (MS2 coat protein [2]): 48.9 nM

GAAGAACAUGAGGAUCACCCAUGUCAGGAUAUGCAGAAGGGAAUAAUAACUUCUGGAAGCAGAAGGGACAAGAA [Ex 1 May 47]
apparent KD of MS2 coat protein (MS2 coat protein [1]): 30.5 nM
apparent KD of MS2 coat protein (MS2 coat protein [2]): 29.6 nM

GAAGUGUUAGGAUAUCGAUGAAUAAUAAAACAAAGGAACAUUGAGAAGGAACAUGAGGAUCACCCAUGUAAAAC [May 82]
apparent KD of MS2 coat protein (MS2 coat protein [1]): 25.6 nM
apparent KD of MS2 coat protein (MS2 coat protein [2]): 33.4 nM

GAAUACCUAGGAUAUACAUGAGGAUCACCCAUGUCAGUAGACUGGGAAAAGUCUCUCAGUAGAAGGAGGACCAG [Anaran]
apparent KD of MS2 coat protein (MS2 coat protein [1]): 233 nM
apparent KD of MS2 coat protein (MS2 coat protein [2]): 192 nM

GAAUGUCUAGGAUAUACAUGAGGAUCACCCAUGUGUAAAAAUAAAUACACAAAAGAAAGUAGAAGGAGACAAAG [Mat - Exclusion 3 - Mayanna mod - D122]
apparent KD of MS2 coat protein (MS2 coat protein [1]): 46.5 nM
apparent KD of MS2 coat protein (MS2 coat protein [2]): 28.5 nM

GAGGCUGAAGGAUAUACAAGGGCCUCACCGCCAAAACGGAAACAUGAGGAUCACCCAUGUAGAAGGUCAAUAAA [Reisvexe]
apparent KD of MS2 coat protein (MS2 coat protein [1]): 77 nM
apparent KD of MS2 coat protein (MS2 coat protein [2]): 57.1 nM

GAUAGUGAAGGAUAUACUGGAGGAGUGCGAUAGAAGAAAGAACAUGAGGAUCACCCAUGUAGAAGGUCAGAAGU [JR_Exc002_Sub1225]
apparent KD of MS2 coat protein (MS2 coat protein [1]): 27.2 nM
apparent KD of MS2 coat protein (MS2 coat protein [2]): 32.3 nM

GCAAAGUGAGGAUAUACGCGAACAAUAAAAAUAAAGAAAGCGUAGAAGGCACAUGAGGAUCACCCAUGUCCAGC [Mat - Exaclusion 4 - Eli mod - D78]
apparent KD of MS2 coat protein (MS2 coat protein [1]): 25.9 nM
apparent KD of MS2 coat protein (MS2 coat protein [2]): 23.5 nM

GCUGGCCAAGGAUAUACAUGAGGAUCACCCAUGUGAGAGAAAAAAGUGAGAAAGAAAAGUAGAAGGUGGGUAGG [salish99-ex3-111]
apparent KD of MS2 coat protein (MS2 coat protein [1]): 56.9 nM
apparent KD of MS2 coat protein (MS2 coat protein [2]): 59 nM

GCUGUCCAAGGAUAUACAUGAGGAUCACCCAUGUGAGAGAAAAAAGUGAGAAAGAAAAGUAGAAGGUGGGUAGG [salish99-ex3-103]
apparent KD of MS2 coat protein (MS2 coat protein [1]): 56.6 nM
apparent KD of MS2 coat protein (MS2 coat protein [2]): 31.6 nM

GGAAAACAUGAGGAUCACCCAUGUAAGGAUAUGCUAAAAAAAAAAAAAAACCCACCAGGCAGAAGGUACUAAAG [Janelle Amethyst 18 Mod 2 - Jieux - Exclusion 1]
apparent KD of MS2 coat protein (MS2 coat protein [1]): 26.8 nM
apparent KD of MS2 coat protein (MS2 coat protein [2]): 20.4 nM

GGUUGAAAAGGAUAUACAUGAGGAUCACCCAUGUGAGAGAAAAAAGUGAGAAAGAAAAGUAGAAGGUUUUGACG [salish99-ex3-61]
apparent KD of MS2 coat protein (MS2 coat protein [1]): 44 nM
apparent KD of MS2 coat protein (MS2 coat protein [2]): 22.8 nM

GGUUGGCGAGGAUAUACAUGAGGAUCACCCAUGUGAGAGAAAAAAGUGAGAAACAAAAGUAGAAGGCGCUGACG [salish99-ex3-26]
apparent KD of MS2 coat protein (MS2 coat protein [1]): 657 nM
apparent KD of MS2 coat protein (MS2 coat protein [2]): 79.8 nM

GGUUGGCGAGGAUAUACAUGAGGAUCACCCAUGUGAGAGAAAAAAGUGAGAAAGCAAAGUAGAAGGCGCUGACG [salish99-ex3-27]
apparent KD of MS2 coat protein (MS2 coat protein [1]): 321 nM
apparent KD of MS2 coat protein (MS2 coat protein [2]): 51.4 nM
